Laboratory results from patent US20210253718A1, “FRIZZLED5 PROTEIN-BINDING AGENTS” (Modmab Therapeutics Corporation, priority 2016, published 2021).

How the values were obtained:
Experiment in all cases: Immunofluorescence of anti-FZD5 Fab binding to CHO cells overexpressing Frizzled CRD
Parameters in all cases: key: −: no binding; +: very weak binder; ++: weak binder; +++: good binder; ++++: very good binder
FZD6 CRD = target: T1, FZD6 CRD (Homo sapiens, UniProt O60353)
T1 construct: S20-P146; GPI anchor signal (C); expressed in transfected cells; host or cells: CHO cells, lentiviral pLenti-puro
T1 sequence (O60353 20-146): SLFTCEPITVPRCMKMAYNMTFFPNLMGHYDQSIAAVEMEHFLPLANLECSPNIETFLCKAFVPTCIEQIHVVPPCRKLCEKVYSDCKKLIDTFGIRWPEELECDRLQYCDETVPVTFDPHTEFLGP
Procedure: (§1) Plasmids: pLCKO lentiviral vector used for knockout (TKO) library construction and expression of individual gRNAs was constructed as described previously (Hart et al., 2015). Briefly, single guide RNA (sgRNA) scaffold was amplified from px330 (Addgene 42230) and cloned into pLKO.TRC005 lentiviral vector (Broad Institute, Cambridge, Mass.) using AgeI/EcoRI restriction sites. BfuAI sites were added at the 5′ end of the sgRNA scaffold for cloning the TKO library or individual gRNA target sequences. Lenti Cas9-2A-BsdR vector used to generate Cas9 stable expression cell lines was constructed as described previously (Hart et al., 2015). Briefly, lentiCRISPR pXPR_001 (Addgene 49535) was modified through removal of the sgRNA scaffold region through NdeI/EcoRI digest and blunt ends generation using Large Klenow Fragment (NEB). 2A-puro was replaced with 2A-BsdR by PCR using the NheI/MluI sites. Each of the 10 human Frizzled cysteine rich domains (CRDs) were cloned into the lentiviral expression plasmid pLenti-puro in the following cassette: FZD_CRD-MYC-GPI.
(§2) To confirm that the FZD5-WNT7B circuit is not driven simply by expression and rule out the possibility of a disconnect between RNA and protein levels for the Wnt receptors in HPAF-II cells, a panel of recombinant Fabs were generated, alternatively referred to herein as ‘Frizzled profiler’, that can detect and discriminate all but one of the ten Frizzled receptors. […] To characterize the binding specificity of these Fabs on cells, a panel of 10 CHO cell lines was generated, each expressing the CRD domain of a different myc-tagged Frizzled family member anchored at the plasma membrane through a GPI anchor (CHO-myc-FZDGPI). Despite the high sequence identity between Frizzled family members (FIG. 7A, FIG. 7B), selective Fabs were identified for FZD4, FZD5, FZD6 and FZD10 as assessed by immunofluorescence and flow cytometry (FIG. 7D and FIG. 8). […] The FZD8 CRD is most homologous to that of FZD5 (FIG. 7B). These Fabs can be used to discriminate expression of FZD1, FZD2, FZD4, FZD5, FZD6, FZD7, FZD8, FZD9 and FZD10 (FIG. 7D and FIG. 8). The ‘Frizzled profiler’ therefore consists of 10 different Fabs that can be used to discriminate expression of 9 different Frizzled family members. The Frizzled profiler was then used to confirm that HPAF-II cells express FZD1, FZD5, FZD6 and possibly FZD8 (FIG. 7E).
(§3) The binding of anti-FZD5 Fabs to cell surface-expressed Frizzled protein was further determined for each member of the Frizzled family via flow cytometry and immunofluorescence analysis of a panel of 10 CHO cell lines, each ectopically over-expressing the extracellular cysteine-rich domain (CRD) of a different Frizzled protein family member.

FZD10 CRD = target: T2, FZD10 CRD (Homo sapiens, UniProt Q9ULW2)
T2 construct: 30-156; GPI anchor signal (C); expressed in transfected cells; host or cells: CHO cells, lentiviral pLenti-puro
T2 sequence (Q9ULW2 30-156): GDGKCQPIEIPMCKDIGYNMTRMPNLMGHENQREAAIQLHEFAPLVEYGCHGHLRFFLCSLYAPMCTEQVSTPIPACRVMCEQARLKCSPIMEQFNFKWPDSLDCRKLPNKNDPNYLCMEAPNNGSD
Procedure: as §1, §2, §3

FZD8 CRD = target: T3, FZD8 CRD (Homo sapiens, UniProt Q9H461)
T3 construct: K31-D155; GPI anchor signal (C); expressed in transfected cells; host or cells: CHO cells, lentiviral pLenti-puro
T3 sequence (Q9H461 31-155): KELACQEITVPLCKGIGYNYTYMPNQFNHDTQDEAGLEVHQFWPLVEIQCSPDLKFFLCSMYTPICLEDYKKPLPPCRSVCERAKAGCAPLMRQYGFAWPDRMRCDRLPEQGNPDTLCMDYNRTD
Procedure: as §1, §2, §3

FZD1 CRD = target: T4, FZD1 CRD (Homo sapiens, UniProt Q9UP38)
T4 construct: D112-P238; GPI anchor signal (C); expressed in transfected cells; host or cells: CHO cells, lentiviral pLenti-puro
Procedure: as §1, §2, §3

FZD3 CRD = target: T5, FZD3 CRD (Homo sapiens, UniProt Q9NPG1)
T5 construct: CRD of FZD1, FZD2, FZD3, FZD4, FZD5, FZD6, FZD7, FZD8, FZD9 or FZD10; GPI anchor signal (C); expressed in transfected cells; host or cells: CHO cells, lentiviral pLenti-puro
T5 sequence (Q9NPG1 23-136 limits assumed): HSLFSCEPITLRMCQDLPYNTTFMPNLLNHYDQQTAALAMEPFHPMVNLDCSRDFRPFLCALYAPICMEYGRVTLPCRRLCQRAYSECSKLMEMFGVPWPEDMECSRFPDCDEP
Procedure: as §1, §2, §3

FZD7 CRD = target: T6, FZD7 CRD (Homo sapiens, UniProt O75084)
T6 construct: D45-S169; GPI anchor signal (C); expressed in transfected cells; host or cells: CHO cells, lentiviral pLenti-puro
Procedure: as §1, §2, §3

FZD2 CRD = target: T7, FZD2 CRD (Homo sapiens, UniProt Q14332)
T7 construct: D35-P161; GPI anchor signal (C); expressed in transfected cells; host or cells: CHO cells, lentiviral pLenti-puro
Procedure: as §1, §2, §3

For “Fab-2931: anti-FZD5 Fab with antibody variable region Fv-2931; CDR SEQ ID NOs: 35, 36, 70, 102, 146, 176 (CDR 1 QSVSSA; CDR 2 SAS; CDR 3 QQSSYSLIT; CDR 4 GFNLSYSS; CDR 5 ISPYSGST; CDR 6 ARGSYWYVGGGWWVSGHGGMDY)”, the “Immunofluorescence binding, Frizzled CRD overexpressed on CHO cells: FZD6” value (FZD6 CRD) was “−”, the “Immunofluorescence binding, Frizzled CRD overexpressed on CHO cells: FZD10” value (FZD10 CRD) was “−” and the “Immunofluorescence binding, Frizzled CRD overexpressed on CHO cells: FZD8” value (FZD8 CRD) was “−”. For the same substance, the “Immunofluorescence binding, Frizzled CRD overexpressed on CHO cells: FZD1” value (FZD1 CRD) was “−”, the “Immunofluorescence binding, Frizzled CRD overexpressed on CHO cells: FZD3” value (FZD3 CRD) was “−” and the “Immunofluorescence binding, Frizzled CRD overexpressed on CHO cells: FZD7” value (FZD7 CRD) was “+”. The “Immunofluorescence binding, Frizzled CRD overexpressed on CHO cells: FZD2” value (FZD2 CRD) was “+”.
